Reference: article PMC9158529, “AfCHIL, a Type IV Chalcone Isomerase, Enhances the Biosynthesis of Naringenin in Metabolic Engineering” (Frontiers in Plant Science, 2022)

Columns and labels:
AfCHS/AfCHIL = test system: T1, AfCHS/AfCHIL; test: HPLC at […] nm, Michaelis-Menten fit; assay type: biochemical, Allium fistulosum; conditions: AfCHIL present; 200 uM malonyl-CoA, 20-200 uM p-coumaroyl-CoA
T1 construct: gene CHS; complete ORFs in pET-15b, His6-tagged, E. coli BL21 (DE3), combined in the assay; legend calls it AfCHIL/AfCHS1; with Chalcone isomerase-like protein (type IV chalcone isomerase)

AfCHS = test system: T2, AfCHS; test: HPLC at […] nm, Michaelis-Menten fit; assay type: biochemical, Allium fistulosum; conditions: 200 uM malonyl-CoA, 20-200 uM p-coumaroyl-CoA, HEPES-KOH pH 7.0, 2 mM DTT, 35 °C, 30 min
T2 construct: gene CHS; complete ORF in pET-15b, His6-tagged, E. coli BL21 (DE3), His-tag purified

[1] = molecular target: AfCHS, chalcone synthase of Allium fistulosum (yeast two-hybrid fusion) (Allium fistulosum)
[2] = molecular target: AfCHS, chalcone synthase of Allium fistulosum (yeast two-hybrid fusion) (Allium fistulosum); remark: listed apart in the source

Km (AfCHS/AfCHIL)	Km (AfCHS)	Kcat of purified His6-AfCHS (p-coumaroyl-CoA and malonyl-CoA as substrates) in the presence of purified His6-AfCHIL, against AfCHS alone [1]	by-product CTAL produced by purified AfCHS in vitro with AfCHIL present, against AfCHS alone [2]	naringenin produced by purified AfCHS in vitro with AfCHIL present, against AfCHS alone [2]	Compound
53.9 ± 10 µM	55.1 ± 12.5 µM				CC(C)(COP(=O)(O)OP(=O)(O)OC[C@H]1O[C@@H](n2cnc3c(N)ncnc32)[C@H](O)[C@@H]1OP(=O)(O)O)[C@@H](O)C(=O)NCCC(=O)NCCSC(=O)/C=C/c1ccc(O)cc1 [p-coumaroyl-CoA]
		2.7 times	30 % decrease	2.2 times	AfCHIL, type IV chalcone isomerase of Allium fistulosum (yeast two-hybrid fusion) (natural protein)
